Measurements taken from the supplement of paper PMC9112550, “Optimization of the antimicrobial peptide Bac7 by deep mutational scanning” (BMC Biology, 2022).

System: Escherichia coli TOP10
Test: shrunken log2 fold change of peptide-encoding DNA abundance (4.5 h post-induction vs induction); higher = less antimicrobial activity (less host growth inhibition)
Settings: time post-induction: 4.5 h; library: site-saturation at positions 5, 18, 19, 20
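Further: peptides expressed intracellularly from a pBAD plasmid library in pooled LB shake-flask culture, induced with 0.3% L-arabinose, DNA abundance read by NGS, three biological replicates, DESeq2 with apeglm shrinkage.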

Sequence | shrunken log2 fold change
RRIRSRPPRLPRPRPRPIVQPRP | 0.144
RRIRSRPPRLPRPRPRPIYPPRP | -0.766
RRIRSRPPRLPRPRPRPKAYPRP | -0.0451
RRIRSRPPRLPRPRPRPKDIPRP | -0.828
RRIRSRPPRLPRPRPRPKEMPRP | 0.187
RRIRSRPPRLPRPRPRPKGDPRP | -0.011
RRIRSRPPRLPRPRPRPKGKPRP | 0.0401
RRIRSRPPRLPRPRPRPKGRPRP | 0.0764
RRIRSRPPRLPRPRPRPKITPRP | -0.325
RRIRSRPPRLPRPRPRPKLHPRP | -0.0772
RRIRSRPPRLPRPRPRPKLPPRP | -0.0678
RRIRSRPPRLPRPRPRPKLYPRP | -0.199
RRIRSRPPRLPRPRPRPKPNPRP | 0.217
RRIRSRPPRLPRPRPRPKQCPRP | 0.14
RRIRSRPPRLPRPRPRPKQGPRP | 0.245
RRIRSRPPRLPRPRPRPKQNPRP | 0.0535
RRIRSRPPRLPRPRPRPKRWPRP | 0.71
RRIRSRPPRLPRPRPRPKTGPRP | -0.071
RRIRSRPPRLPRPRPRPKVSPRP | 0.21
RRIRSRPPRLPRPRPRPKYGPRP | -0.884
RRIRSRPPRLPRPRPRPKYLPRP | -0.756
RRIRSRPPRLPRPRPRPKYYPRP | -0.918
RRIRSRPPRLPRPRPRPLAEPRP | 0.502
RRIRSRPPRLPRPRPRPLAWPRP | 0.402
RRIRSRPPRLPRPRPRPLCCPRP | 0.473

Sequence | shrunken log2 fold change
RRIRSRPPRLPRPRPRPLCNPRP | -0.278
RRIRSRPPRLPRPRPRPLDEPRP | 0.189
RRIRSRPPRLPRPRPRPLDRPRP | 0.218
RRIRSRPPRLPRPRPRPLDYPRP | -0.194
RRIRSRPPRLPRPRPRPLECPRP | -0.267
RRIRSRPPRLPRPRPRPLFRPRP | -0.368
RRIRSRPPRLPRPRPRPLFSPRP | -0.0902
RRIRSRPPRLPRPRPRPLHNPRP | -0.198
RRIRSRPPRLPRPRPRPLHSPRP | -0.0322
RRIRSRPPRLPRPRPRPLIAPRP | 0.0475
RRIRSRPPRLPRPRPRPLIRPRP | -0.196
RRIRSRPPRLPRPRPRPLITPRP | -0.012
RRIRSRPPRLPRPRPRPLIVPRP | -0.206
RRIRSRPPRLPRPRPRPLMGPRP | -0.271
RRIRSRPPRLPRPRPRPLMLPRP | -0.581
RRIRSRPPRLPRPRPRPLMQPRP | -0.0707
RRIRSRPPRLPRPRPRPLQIPRP | 0.0322
RRIRSRPPRLPRPRPRPLQKPRP | 0.0179
RRIRSRPPRLPRPRPRPLRPPRP | 0.953
RRIRSRPPRLPRPRPRPLSIPRP | -0.447
RRIRSRPPRLPRPRPRPLTGPRP | 0.043
RRIRSRPPRLPRPRPRPLTMPRP | -0.242
RRIRSRPPRLPRPRPRPLVLPRP | -0.233
RRIRSRPPRLPRPRPRPLVWPRP | 0.272
RRIRSRPPRLPRPRPRPLWAPRP | 0.206

Sequence | shrunken log2 fold change
RRIRSRPPRLPRPRPRPLWDPRP | -0.134
RRIRSRPPRLPRPRPRPLWPPRP | 0.229
RRIRSRPPRLPRPRPRPLYWPRP | -0.154
RRIRSRPPRLPRPRPRPMADPRP | -0.0211
RRIRSRPPRLPRPRPRPMCLPRP | 0.038
RRIRSRPPRLPRPRPRPMDKPRP | 0.0107
RRIRSRPPRLPRPRPRPMEAPRP | -0.00776
RRIRSRPPRLPRPRPRPMENPRP | 0.0424
RRIRSRPPRLPRPRPRPMEPPRP | 0.0473
RRIRSRPPRLPRPRPRPMFMPRP | -0.223
RRIRSRPPRLPRPRPRPMFSPRP | -0.49
RRIRSRPPRLPRPRPRPMGTPRP | 0.194
RRIRSRPPRLPRPRPRPMHEPRP | -0.271
RRIRSRPPRLPRPRPRPMHIPRP | -0.283
RRIRSRPPRLPRPRPRPMHNPRP | -0.179
RRIRSRPPRLPRPRPRPMKQPRP | 0.00692
RRIRSRPPRLPRPRPRPMLGPRP | 0.106
RRIRSRPPRLPRPRPRPMLKPRP | -0.0793
RRIRSRPPRLPRPRPRPMLWPRP | 0.619
RRIRSRPPRLPRPRPRPMMNPRP | -0.0187
RRIRSRPPRLPRPRPRPMPRPRP | 0.346
RRIRSRPPRLPRPRPRPMQFPRP | 0.0683
RRIRSRPPRLPRPRPRPMQKPRP | -0.0221
RRIRSRPPRLPRPRPRPMQVPRP | -0.064
RRIRSRPPRLPRPRPRPMRLPRP | 0.0162
